Several values for one entry are separate records, joined by “and”; a condition that tells them apart may be missing. Equal values may be shown once.
Tests used:
[1] = molecular target: CDC42 IH variants (four different single residue mutations and a quadruple mutation of the insert helix); assay: fluorescence polarisation; 1 µM mant-GDP-bound CDC42 in the cuvette, IQGAP protein titrated; quadratic ligand binding equation
[2] = molecular target: CDC42 IH variants (four different single residue mutations and a quadruple mutation of the insert helix); assay: fluorescence polarisation; 1 µM mant-GppNHp-bound CDC42 in the cuvette, IQGAP protein titrated; quadratic ligand binding equation
[3] = molecular target: human CDC42 (aa 1-178) 8xSW (human) (UniProt P60953); assay: as above
[4] = molecular target: the CDC42 variants (2xSW and 8xSW), mGppNHp-bound; assay: as above

human IQGAP1 C794 (aa 863-1657), sequence (P46940 863-1657): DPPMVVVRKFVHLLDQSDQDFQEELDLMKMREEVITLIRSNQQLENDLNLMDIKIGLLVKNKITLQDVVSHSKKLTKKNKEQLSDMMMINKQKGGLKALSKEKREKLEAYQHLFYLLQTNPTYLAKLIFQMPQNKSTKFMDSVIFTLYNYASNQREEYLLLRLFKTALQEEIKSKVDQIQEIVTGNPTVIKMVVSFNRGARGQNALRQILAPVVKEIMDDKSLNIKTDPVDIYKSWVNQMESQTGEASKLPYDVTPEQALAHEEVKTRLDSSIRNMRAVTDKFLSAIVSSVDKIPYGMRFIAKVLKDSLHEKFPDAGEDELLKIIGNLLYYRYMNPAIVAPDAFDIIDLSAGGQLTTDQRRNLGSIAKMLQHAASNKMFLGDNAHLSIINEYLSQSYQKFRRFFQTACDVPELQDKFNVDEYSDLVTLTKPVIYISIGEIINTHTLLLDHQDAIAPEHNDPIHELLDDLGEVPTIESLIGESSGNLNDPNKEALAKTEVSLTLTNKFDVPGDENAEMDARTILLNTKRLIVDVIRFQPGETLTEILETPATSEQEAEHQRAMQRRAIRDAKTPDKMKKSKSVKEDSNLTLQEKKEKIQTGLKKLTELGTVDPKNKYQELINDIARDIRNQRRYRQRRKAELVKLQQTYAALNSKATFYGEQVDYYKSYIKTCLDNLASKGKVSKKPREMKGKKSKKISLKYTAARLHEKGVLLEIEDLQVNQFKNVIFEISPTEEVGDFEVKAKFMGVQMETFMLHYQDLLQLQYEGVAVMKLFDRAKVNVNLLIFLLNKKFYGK
human IQGAP1 GRD1 (aa 962-1345), sequence (P46940 962-1345): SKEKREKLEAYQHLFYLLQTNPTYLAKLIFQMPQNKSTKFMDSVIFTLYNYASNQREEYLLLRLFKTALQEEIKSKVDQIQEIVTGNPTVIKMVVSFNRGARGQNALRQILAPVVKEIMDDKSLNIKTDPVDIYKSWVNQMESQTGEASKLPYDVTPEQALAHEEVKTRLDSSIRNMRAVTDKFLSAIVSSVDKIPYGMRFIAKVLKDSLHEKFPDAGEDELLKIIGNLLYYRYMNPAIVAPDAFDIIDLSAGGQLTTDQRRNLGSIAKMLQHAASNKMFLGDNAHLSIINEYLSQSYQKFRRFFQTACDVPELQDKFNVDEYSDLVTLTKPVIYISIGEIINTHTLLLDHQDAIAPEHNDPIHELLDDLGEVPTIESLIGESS
human CDC42 (aa 1-178) 8xSW (human), sequence (P60953 1-178): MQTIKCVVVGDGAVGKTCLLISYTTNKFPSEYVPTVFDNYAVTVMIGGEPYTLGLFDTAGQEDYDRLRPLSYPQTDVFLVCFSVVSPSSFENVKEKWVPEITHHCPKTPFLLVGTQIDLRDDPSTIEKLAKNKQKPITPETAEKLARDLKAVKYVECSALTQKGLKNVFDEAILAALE

fold lower affinity than for CDC42 WT [1] [fold] | fold lower affinity than for CDC42 WT [2] [fold] | fold reduction in binding affinity against CDC42 WT [3] [fold] | fold reduction in binding affinity against CDC42 WT [4] | Substance
3 | 20 | 86 | – | human IQGAP1 C794 (aa 863-1657) (from UniProt P46940 863-1657) (domain or fragment)
– | – | – | 2 fold and 3 fold | human IQGAP1 GRD1 (aa 962-1345) (from UniProt P46940 962-1345) (domain or fragment)
